pKd, pKi: −log10 of the molar value.

Drawing on US5503978, this text covers activity, Ki and Kd for two sequences.

Series [1] has as its system AMV reverse transcriptase (Avian myeloblastosis virus). The settings on record: intramolecular 3' extension to end of template; 100 nM RT.
The target in series [2] is T1, HIV-1 reverse transcriptase (HIV-1) (UniProt P04585+P04585). Description: inhibition. Conditions: almost no inhibition at 81 nM.
The target in series [3] is T1, HIV-1 reverse transcriptase (HIV-1). Nature of the series: filter. The settings on record: apparent Kd of degenerate library.

As to “ATCCGCCTGATTAGCGATACTTACGTGAGCGTGCTGTCCCCTAAAGGTGATACGTCACTTGAGCAAAATCACCTGCAGGGG [RT26]”, the activity in series [1] was determined as 50 % initiation. As a reminder, the pKi is −log10 of the Ki, conventionally taken in molar units. A low value points to a large Ki. What is called pKd is the negative decadic logarithm of the Kd, by convention in mol/L. In turn, “CCCCTGCAGGTGATTTTGCTCAAGTNNNNNNNNNNNNNNNNNNNNNNNNNNNNNNNNNNNAGTATCGCTAATCAGGCGGAT [R0 degenerate 35N ssDNA library]” gave a negative-log Ki (pKi) in series [2] of under 5.52. For the same sequence, the pKd in series [3] was 5.85.
